{"source": "paper PMC8031663", "about": "“Caveolin‐1‐driven membrane remodelling regulates hnRNPK‐mediated exosomal microRNA sorting in cancer”", "target": "hnRNPK (6xHis-GFP fusion) (Homo sapiens, UniProt P61978 1-463)", "assay": "MST; Kd plotted in Fig 4B, value not in text; MST: 50 mM HEPES, 0.3 M KCl, pH 7.4, 40 nM RNA, protein dilution from 150 uM, temperature not stated; pull-down: 10 mM Tris-Cl pH 7.5, 20 mM KCl, 1.5 mM MgCl2", "conditions": "protein: recombinant; tags: N-terminal 6xHis-GFP, TEV site; label: 5' 6-FAM; single strand"}
{"binder": "UCAGUGCACUACAGAACUUUGU (ssRNA)", "note": "[motif_mimic (miR-148a-3p)]", "values": [{"measurement": "binding result", "result": "binds"}]}
